Measurements published in the Human Domainome abundance scans (Beltran et al. 2025).
± gives the uncertainty stated by the source.

B1: Myocardin, residues 363 to 406; numbered along this chain, Q8IZQ8 (parent)
chain: KPGPLPPNLDDLKVSELRQQLRIRGLPVSGTKTALMDRLRPFQD

Variants of: B1
Experiment: abundance fitness (aPCA) (normalised: wild type 0, dead -1); higher = more abundant; growth selection in yeast, the domain comes from the species named
Conditions: Homo sapiens

**Q.** Which abundance fitness does the source give for KPGPLPPNLDDLKVSELRQQLRIRWLPVSGTKTALMDRLRPFQD [G25W] here?
**A.** -1.15 ± 0.25

**Q.** With KPGPLPPNLDDLKVSELRQQLRIRKLPVSGTKTALMDRLRPFQD [G25K] as the variant, how does the abundance fitness read?
**A.** 0.068 ± 0.14

**Q.** Which abundance fitness does the source give for KPGPLPPNLDDLKVSELRQQLRIRHLPVSGTKTALMDRLRPFQD [G25H] here?
**A.** 0.308 ± 0.16

**Q.** With KPGPLPPNLDDLKVSELRQQLRIRCLPVSGTKTALMDRLRPFQD [G25C] as the variant, how does the abundance fitness read?
**A.** -0.342 ± 0.12

**Q.** With KPGPLPPNLDDLKVSELRQQLRIRRLPVSGTKTALMDRLRPFQD [G25R] as the variant, how does the abundance fitness read?
**A.** -0.401 ± 0.09

**Q.** Which abundance fitness does the source give for KPGPLPPNLDDLKVSELRQQLRIRQLPVSGTKTALMDRLRPFQD [G25Q] here?
**A.** -0.325 ± 0.088

**Q.** Which abundance fitness does the source give for KPGPLPPNLDDLKVSELRQQLSIRGLPVSGTKTALMDRLRPFQD [R22S] here?
**A.** -0.21 ± 0.11

**Q.** Which abundance fitness does the source give for KPGPLPPNLDDLKVSELRQQLVIRGLPVSGTKTALMDRLRPFQD [R22V] here?
**A.** -0.557 ± 0.11

**Q.** For KPGPLPPNLDDLKVSELRQQLWIRGLPVSGTKTALMDRLRPFQD [R22W], which abundance fitness is on record?
**A.** -0.771 ± 0.12

**Q.** With KPGPLPPNLDDLKVSELRQQLTIRGLPVSGTKTALMDRLRPFQD [R22T] as the variant, how does the abundance fitness read?
**A.** -0.258 ± 0.12

**Q.** With KPGPLPPNLDDLKVSELRQQLRIEGLPVSGTKTALMDRLRPFQD [R24E] as the variant, how does the abundance fitness read?
**A.** -0.56 ± 0.14

**Q.** With KPGPLPPNLDDLKVSELRQQLRIGGLPVSGTKTALMDRLRPFQD [R24G] as the variant, how does the abundance fitness read?
**A.** -0.878 ± 0.11

**Q.** Which abundance fitness does the source give for KPGPLPPNLDDLKVSELRQQLRIMGLPVSGTKTALMDRLRPFQD [R24M] here?
**A.** 0.092 ± 0.2

**Q.** Which abundance fitness does the source give for KPGPLPPNLDDLKVSELRQQLRIDGLPVSGTKTALMDRLRPFQD [R24D] here?
**A.** -0.536 ± 0.16

**Q.** For KPGPLPPNLDDLKVSELRQQLRIPGLPVSGTKTALMDRLRPFQD [R24P], which abundance fitness is on record?
**A.** -0.456 ± 0.16

**Q.** With KPGPLPPNLDDLKVSELRQQLRIAGLPVSGTKTALMDRLRPFQD [R24A] as the variant, how does the abundance fitness read?
**A.** -0.695 ± 0.11

**Q.** Which abundance fitness does the source give for KPGPLPPNLDDLKVSELRQQLRIQGLPVSGTKTALMDRLRPFQD [R24Q] here?
**A.** -0.73 ± 0.2

**Q.** With KPGPLPPNLDDLKVSELRQQLRISGLPVSGTKTALMDRLRPFQD [R24S] as the variant, how does the abundance fitness read?
**A.** -0.881 ± 0.16

**Q.** Which abundance fitness does the source give for KPGPLPPNLDDLKVSELRQQLRIYGLPVSGTKTALMDRLRPFQD [R24Y] here?
**A.** -1.16 ± 0.34

**Q.** Which abundance fitness does the source give for KPGPLPPNLDDLKVSELRQQLRIWGLPVSGTKTALMDRLRPFQD [R24W] here?
**A.** -0.732 ± 0.14

**Q.** Which abundance fitness does the source give for KPGPLPPNLDDLKVSELRQQLRINGLPVSGTKTALMDRLRPFQD [R24N] here?
**A.** -0.695 ± 0.15

**Q.** For KPGPLPPNLDDLKVSELRQQLRITGLPVSGTKTALMDRLRPFQD [R24T], which abundance fitness is on record?
**A.** -0.905 ± 0.26

**Q.** Which abundance fitness does the source give for KPGPLPPNLDDLKVSELRQQLRIVGLPVSGTKTALMDRLRPFQD [R24V] here?
**A.** -0.528 ± 0.1

**Q.** With KPGPLPPNLDDLKVSELRQQLRILGLPVSGTKTALMDRLRPFQD [R24L] as the variant, how does the abundance fitness read?
**A.** -0.429 ± 0.12

**Q.** With KPGPLPPNLDDLKVSELRQQLRIFGLPVSGTKTALMDRLRPFQD [R24F] as the variant, how does the abundance fitness read?
**A.** -0.819 ± 0.19

**Q.** For KPGPLPPNLDDLKVSELRQQLRIKGLPVSGTKTALMDRLRPFQD [R24K], which abundance fitness is on record?
**A.** -0.387 ± 0.095

**Q.** With KPGPLPPNLDDLKVSELRQQLRIRGLAVSGTKTALMDRLRPFQD [P27A] as the variant, how does the abundance fitness read?
**A.** -0.376 ± 0.093

**Q.** With KPGPLPPNLDDLKVSELRQQLRIRGLCVSGTKTALMDRLRPFQD [P27C] as the variant, how does the abundance fitness read?
**A.** -0.216 ± 0.1

**Q.** Which abundance fitness does the source give for KPGPLPPNLDDLKVSELRQQLRIRGLGVSGTKTALMDRLRPFQD [P27G] here?
**A.** -0.41 ± 0.068

**Q.** For KPGPLPPNLDDLKVSELRQQLRIRGLHVSGTKTALMDRLRPFQD [P27H], which abundance fitness is on record?
**A.** -0.149 ± 0.19

**Q.** For KPGPLPPNLDDLKVSELRQQLRIRGLTVSGTKTALMDRLRPFQD [P27T], which abundance fitness is on record?
**A.** -0.39 ± 0.17

**Q.** For KPGPLPPNLDDLKVSELRQQLRIRGLVVSGTKTALMDRLRPFQD [P27V], which abundance fitness is on record?
**A.** -0.73 ± 0.12

**Q.** Which abundance fitness does the source give for KPGPLPPNLDDLKVSELRQQLRIRGLDVSGTKTALMDRLRPFQD [P27D] here?
**A.** 0.162 ± 0.071

**Q.** For KPGPLPPNLDDLKVSELRQQLRIRGLSVSGTKTALMDRLRPFQD [P27S], which abundance fitness is on record?
**A.** -0.043 ± 0.076

**Q.** Which abundance fitness does the source give for KPGPLPPNLDDLKVSELRQQLRIRGLIVSGTKTALMDRLRPFQD [P27I] here?
**A.** -0.374 ± 0.14

**Q.** Which abundance fitness does the source give for KPGPLPPNLDDLKVSELRQQLRIRGLLVSGTKTALMDRLRPFQD [P27L] here?
**A.** -0.657 ± 0.099

**Q.** Which abundance fitness does the source give for KPGPLPPNLDDLKVSELRQQLRIRGLMVSGTKTALMDRLRPFQD [P27M] here?
**A.** -0.324 ± 0.13

**Q.** With KPGPLPPNLDDLKVSELRQQLRIRGLEVSGTKTALMDRLRPFQD [P27E] as the variant, how does the abundance fitness read?
**A.** -0.245 ± 0.087

**Q.** Which abundance fitness does the source give for KPGPLPPNLDDLKVSELRQQLRIRGLQVSGTKTALMDRLRPFQD [P27Q] here?
**A.** -0.05 ± 0.094

**Q.** For KPGPLPPNLDDLKVSELRQQLRIRGLYVSGTKTALMDRLRPFQD [P27Y], which abundance fitness is on record?
**A.** -0.891 ± 0.13

**Q.** With KPGPLPPNLDDLKVSELRQQLRIRGLRVSGTKTALMDRLRPFQD [P27R] as the variant, how does the abundance fitness read?
**A.** -0.344 ± 0.055

**Q.** For KPGPLPPNLDDLKVSELRQQLRIRGLWVSGTKTALMDRLRPFQD [P27W], which abundance fitness is on record?
**A.** -0.951 ± 0.15

**Q.** For KPGPLPPNLDDLKVSELRQQLRIRGLPQSGTKTALMDRLRPFQD [V28Q], which abundance fitness is on record?
**A.** 0.027 ± 0.069

**Q.** For KPGPLPPNLDDLKVSELRQQLRIRGLPASGTKTALMDRLRPFQD [V28A], which abundance fitness is on record?
**A.** -0.002 ± 0.063

**Q.** For KPGPLPPNLDDLKVSELRQQLRIRGLPKSGTKTALMDRLRPFQD [V28K], which abundance fitness is on record?
**A.** -0.436 ± 0.14

**Q.** Which abundance fitness does the source give for KPGPLPPNLDDLKVSELRQQLRIRGLPCSGTKTALMDRLRPFQD [V28C] here?
**A.** 0.207 ± 0.094

**Q.** Which abundance fitness does the source give for KPGPLPPNLDDLKVSELRQQLRIRGLPGSGTKTALMDRLRPFQD [V28G] here?
**A.** -0.168 ± 0.062

**Q.** For KPGPLPPNLDDLKVSELRQQLRIRGLPTSGTKTALMDRLRPFQD [V28T], which abundance fitness is on record?
**A.** 0.153 ± 0.088

**Q.** For KPGPLPPNLDDLKVSELRQQLRIRGLPISGTKTALMDRLRPFQD [V28I], which abundance fitness is on record?
**A.** 0.217 ± 0.17

**Q.** With KPGPLPPNLDDLKVSELRQQLRIRGLPSSGTKTALMDRLRPFQD [V28S] as the variant, how does the abundance fitness read?
**A.** 0.123 ± 0.098

**Q.** Which abundance fitness does the source give for KPGPLPPNLDDLKVSELRQQLRIRGLPDSGTKTALMDRLRPFQD [V28D] here?
**A.** 0.294 ± 0.18

**Q.** For KPGPLPPNLDDLKVSELRQQLRIRGLPLSGTKTALMDRLRPFQD [V28L], which abundance fitness is on record?
**A.** -0.07 ± 0.064

**Q.** For KPGPLPPNLDDLKVSELRQQLRIRGLPESGTKTALMDRLRPFQD [V28E], which abundance fitness is on record?
**A.** 0.082 ± 0.068

**Q.** With KPGPLPPNLDDLKVSELRQQLRIRGLPRSGTKTALMDRLRPFQD [V28R] as the variant, how does the abundance fitness read?
**A.** -0.671 ± 0.075

**Q.** For KPGPLPPNLDDLKVSELRQQLRIRGLPPSGTKTALMDRLRPFQD [V28P], which abundance fitness is on record?
**A.** -0.198 ± 0.074

**Q.** Which abundance fitness does the source give for KPGPLPPNLDDLKVSELRQQLRIRGLPHSGTKTALMDRLRPFQD [V28H] here?
**A.** -0.264 ± 0.14

**Q.** Which abundance fitness does the source give for KPGPLPPNLDDLKVSELRQQLRIRGLPWSGTKTALMDRLRPFQD [V28W] here?
**A.** -0.13 ± 0.089

**Q.** For KPGPLPPNLDDLKVSELRQQLRIRGLPMSGTKTALMDRLRPFQD [V28M], which abundance fitness is on record?
**A.** 0.017 ± 0.18
